Test results reported in article PMC8693953 (Molecular Biology of the Cell, 2021).

These binders were tested against proline-rich tyrosine kinase 2 (Pyk2) (UniProt Q14289 1-1009) (assay: pull-down).
Sequence of proline-rich tyrosine kinase 2 (Pyk2) (Q14289 whole entry): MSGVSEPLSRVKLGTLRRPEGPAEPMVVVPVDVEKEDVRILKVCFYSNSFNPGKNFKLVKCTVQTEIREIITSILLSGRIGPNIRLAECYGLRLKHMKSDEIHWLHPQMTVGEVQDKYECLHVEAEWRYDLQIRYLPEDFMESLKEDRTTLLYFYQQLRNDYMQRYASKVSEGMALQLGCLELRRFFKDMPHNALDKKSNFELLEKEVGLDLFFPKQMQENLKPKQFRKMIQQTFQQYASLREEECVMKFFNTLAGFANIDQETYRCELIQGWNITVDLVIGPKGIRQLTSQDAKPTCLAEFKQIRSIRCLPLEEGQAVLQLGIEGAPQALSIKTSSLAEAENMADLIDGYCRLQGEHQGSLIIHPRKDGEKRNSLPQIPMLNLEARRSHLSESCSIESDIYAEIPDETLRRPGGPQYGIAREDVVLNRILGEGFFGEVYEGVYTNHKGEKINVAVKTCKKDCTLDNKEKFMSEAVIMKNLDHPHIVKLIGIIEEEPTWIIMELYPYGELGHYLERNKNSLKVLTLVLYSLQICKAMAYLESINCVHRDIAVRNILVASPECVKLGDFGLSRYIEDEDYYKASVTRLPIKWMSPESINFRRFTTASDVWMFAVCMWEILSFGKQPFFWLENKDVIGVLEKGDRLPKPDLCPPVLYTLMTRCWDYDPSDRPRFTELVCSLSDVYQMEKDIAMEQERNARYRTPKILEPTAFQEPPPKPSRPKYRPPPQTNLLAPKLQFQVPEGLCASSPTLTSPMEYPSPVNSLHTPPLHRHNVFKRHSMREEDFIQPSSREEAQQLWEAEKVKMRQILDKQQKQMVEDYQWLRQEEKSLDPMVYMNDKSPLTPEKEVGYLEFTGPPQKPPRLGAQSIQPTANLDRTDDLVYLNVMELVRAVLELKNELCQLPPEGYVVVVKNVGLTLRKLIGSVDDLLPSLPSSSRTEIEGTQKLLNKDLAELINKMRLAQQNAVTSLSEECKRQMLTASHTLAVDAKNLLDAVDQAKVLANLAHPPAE

| Kd [nM] | Binder |
| --- | --- |
| 150 ± 30 | GST-CrkII (recombinant chicken CrkII, wild type) (natural protein, UniProt Q04929 1-305, looked up) MAGQFDSEDRGSWYWGRLSRGDAVSLLQGQRHGTFLVRDSGSIPGDFVLSVSESSRVSHYIVNSLGPAGGRRAGGEGPGAPGLNPTRFRIGDQEFDSLPSLLEFYKIHYLDTTTLIEPVSRSRQNSGVILRQEEVEYVRALFDFNGNDDEDLPFKKGDILKIRDKPEEQWWNAEDMDGKRGMIPVPYVEKCRPSSASVSTLTGGNQDSSHPQPLGGPEPGPYAQPSINTPLPNLQNGPFYARVIQKRVPNAYDKTALALEVGELVKVTKINMSGQWEGECNGKRGHFPFTHVRLLDQQNPDEDFS |
| 134 ± 34 | GST-CrkCSH3 (CrkII W276K, mutation at the C-terminal SH3 domain) (natural protein, chicken, UniProt Q04929 1-305, looked up) MAGQFDSEDRGSWYWGRLSRGDAVSLLQGQRHGTFLVRDSGSIPGDFVLSVSESSRVSHYIVNSLGPAGGRRAGGEGPGAPGLNPTRFRIGDQEFDSLPSLLEFYKIHYLDTTTLIEPVSRSRQNSGVILRQEEVEYVRALFDFNGNDDEDLPFKKGDILKIRDKPEEQWWNAEDMDGKRGMIPVPYVEKCRPSSASVSTLTGGNQDSSHPQPLGGPEPGPYAQPSINTPLPNLQNGPFYARVIQKRVPNAYDKTALALEVGELVKVTKINMSGQKEGECNGKRGHFPFTHVRLLDQQNPDEDFS |
| 508 ± 158 | GST-CrkSH2 (CrkII R38K, mutation at the N-terminal SH2 domain) (natural protein, chicken, UniProt Q04929 1-305, looked up) MAGQFDSEDRGSWYWGRLSRGDAVSLLQGQRHGTFLVKDSGSIPGDFVLSVSESSRVSHYIVNSLGPAGGRRAGGEGPGAPGLNPTRFRIGDQEFDSLPSLLEFYKIHYLDTTTLIEPVSRSRQNSGVILRQEEVEYVRALFDFNGNDDEDLPFKKGDILKIRDKPEEQWWNAEDMDGKRGMIPVPYVEKCRPSSASVSTLTGGNQDSSHPQPLGGPEPGPYAQPSINTPLPNLQNGPFYARVIQKRVPNAYDKTALALEVGELVKVTKINMSGQWEGECNGKRGHFPFTHVRLLDQQNPDEDFS |
